According to patent US20090233074A1 (ARTIFICIAL CELL TECHNOLOGIES, published 2009):

T1: de novo-designed cysteine-containing negative polypeptide (SEQ ID NO: 6)
T1 peptide: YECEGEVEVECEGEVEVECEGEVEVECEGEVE

T2: SN1 (short negative designed polypeptide)
T2 construct: Synthetic 32-residue polyanion built from a 7-residue motif of human complement C3, with Gly linkers and an N-terminal Tyr
T2 peptide: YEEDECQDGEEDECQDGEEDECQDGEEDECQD

T3: LN3 (long negative designed polypeptide)
T3 construct: Synthetic 48-residue polyanion; also called negative 48-residue peptide
T3 peptide: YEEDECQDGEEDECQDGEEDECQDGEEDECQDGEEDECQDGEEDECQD


Key:
[1] = molecular target: T1, de novo-designed cysteine-containing …; assay: QCM, layer-by-layer assembly, 10 mM Tris-HCl, 10 mM DTT, pH 7.4, 2 mg/mL peptide
Procedure: All assembly experiments using QCM were conducted in the same conditions, except that the samples to undergo oxidation were dried using air instead of nitrogen gas. The assembly conditions were 10 mM Tris-HCl, 10 mM DTT, pH 7.4. The nominal peptide concentration was 2 mg/mL. The number of layers formed was 14.

[2] = molecular target: T2, SN1 (short negative designed …); assay: QCM, electrostatic layer-by-layer adsorption of oppositely charged peptides, pH 7.4, 1 mM DTT (pairs named in paragraph 153)
Procedure: (§1) The polypeptide molecular weight was verified by electrospray mass spectrometry. Peptide purity was greater than 70%. The polypeptide buffer was 10 mM sodium phosphate or 10 mM Tris-HCl, 1 mM DTT, 0.1 mM sodium azide, pH 7.4. All chemicals other than polypeptides were purchased from Sigma-Aldrich (USA).
(§2) Resonators were rinsed for 1 min. in pure water between subsequent adsorption cycles (removing perhaps 10-15% of weakly adsorbed material) and dried in a stream of gaseous N₂. Then the mass of the deposited peptide was measured indirectly by QCM. The mass measurement includes some water, despite drying, and low mass ions like K⁺, Na⁺, and Cl⁻. Partial interpenetration of neighboring layers of peptide is probable (see Decher, G. (1997) Science 227:1232; Schmitt et al. (1993) Macromolecules 26:7058; and Korneev et al. (1995) Physica B 214:954); this could be important for the efficiency of disulfide “locking.”
(§3) After adsorption of the polypeptide and rinsing and drying the QCM resonator, the resonant frequency of the resonator was measured. This enabled calculation of the frequency shift on adsorption and change in adsorbed mass. A decrease in frequency indicates an increase in adsorbed mass. […] Each of these combinations involved one negative polypeptide and one positive polypeptide, as required by ELBL.

[3] = molecular target: T3, LN3 (long negative designed polypeptide); assay: as above
Procedure: as §1, §2, §3

| binding result [1] | binding result [2] | binding result [3] | Binder |
| --- | --- | --- | --- |
| binds | – | – | YKCKGKVKVKCKGKVKVKCKGKVKVKCKGKVK [de novo-designed cysteine-containing positive polypeptide (SEQ ID NO: 5)] |
| – | binds | binds | YRRRRSVQGRRRRSVQGRRRRSVQGRRRRSVQ (Synthetic 32-residue polycation built from a 7-residue motif of human lactotransferrin, with Gly linkers and an N-terminal Tyr) [SP2 (short positive designed polypeptide)] |
| – | – | binds | YRRRRSVQGRRRRSVQGRRRRSVQGRRRRSVQGRRRRSVQGRRRRSVQ (Synthetic 48-residue polycation) [LP4 (long positive designed polypeptide)] |
